{
  "source": "patent US20230392126A1",
  "about": "“TISSUE ORGANOIDS” (priority 2016, published 2023)",
  "molecules": {"B1": {"name": "hBChE: modified human butyrylcholinesterase (E30-6, SEQ ID NO: 41), cocaine hydrolase, expressed from engineered epidermal cells / skin grafts (protein)", "chain": "MHSKVTIICIRFLFWFLLLCMLIGKSHTEDDIIIATKNGKVRGMNLTVFGGTVTAFLGIPYAQPPLGRLRFKKPQSLTKWSDIWNATKYANSCCQNIDQSFPGFHGSEMWNPNTDLSEDCLYLNVWIPAPKPKNATVLIWIYGGGFQTGTSSLHVYDGKFLARVERVIVVSMNYRVGALGFLALPGNPEAPGNMGLFDQQLALQWVQKNIAAFGGNPKSVTLFGESSGAASVSLHLLSPGSHSLFTRAILQSGSANAPWAVTSLYEARNRTLNLAKLTGCSRENETEIIKCLRNKDPQEILLNEAFVVPYGTALGVNFGPTVDGDFLTDMPDILLELGQFKKTQILVGVNKDEGTWFLVGGAPGFSKDNNSIITRKEFQEGLKIFFPGVSEFGKESILFHYTDWVDDQRPENYREALGDVVGDYNFICPALEFTKKFSEWGNNAFFYYFEHRSSKLPWPEWMGVMHGYEIEFVFGLPLERRDNYTKAEEILSRSIVKRWANFAKYGNPNETQNNSTSWPVFKSTEQKYLTLNTESTRIMTKLRAQQCRFWTSFFPKVLEMTGNIDEAEWEWKAGFHRWNNYMMDWKNQFNDYTSKKESCVGL", "modifications": "Human mutant BChE"}},
  "key": {"[1]": {"settings": "after i.v. injection; cited from earlier work"}, "[2]": {"tested_on": "mouse epidermal stem cells", "experiment": "Cell proliferation and differentiation of engineered mouse epidermal cells in vitro (cell cycle FACS, calcium shift western blot)", "format": "cell-based", "experimental": "Primary human neonatal epidermal keratinocytes were obtained from Thermo Fischer® (C0015C), and cultured with Epilife® medium (Thermo Fischer, M-EPICF-500) with manufacturer's recommended procedures. Calcium shift was performed to induce differentiation of primary keratinocytes by increasing the calcium concentration in culture media to 1.5 mM.\nPropidium iodide (PI) staining followed by flow cytometry were used to determine the effect of cell cycle profiles. Mouse and human epidermal cells were cultured in two 6 cm cell culture dish for 24 hours, respectively. Cells were trypsinized, and 1×10^5 cells from each dish were collected, followed by one PBS wash. […] After staining, the cells were analyzed immediately using flow cytometer BD FACSCanto™ II (BD Biosciences, San Jose, CA) with an excitation wavelength at 488 nm and emission at 585 nm. DNA content and histograms of cell cycle distribution were analyzed using FlowJo™ software, version 10 (FLOWJO LLC, OR).\nWestern blotting was performed as described previously (Blanpain et al.). […] Visualization and quantification was carried out with the LI-COR Odyssey® scanner and software (LI-COR Biosciences).\nPropidium iodide (PI) staining followed by flow cytometry were used to determine the effect of cell cycle profiles. […] DNA content and histograms of cell cycle distribution were analyzed using FlowJo™ software, version 10 (FLOWJO LLC, OR). […]"}, "[3]": {"experiment": "Acute drug overdose test: cocaine-induced lethality", "format": "in vivo, mouse", "settings": "40, 80, 120, 160 mg/kg cocaine i.p.", "experimental": "For all behavioral experiments except where noted, C57BL/6J mice were used. Roughly equal numbers of adult male and female mice were group-housed until surgery. Mice were maintained under controlled temperature and humidity conditions on a 12 h:12 h light:dark cycle (lights on at 7:00). Water and food were available ad libitum. Mice weighed around 25-30 g at the beginning of the experiments. All procedures followed National Institutes of Health Guide for the Care and Use of Laboratory Animal and were approved by the University of Chicago Institutional Animal Care and Use Committee.\nDrug: Cocaine HCl and methamphetamine HCl (Sigma-Aldrich, Saint Louis, MO) were dissolved in sterile saline and delivered intraperitoneally at appropriates doses in a volume of 10 mL/kg. […]\nAcute drug overdose test: Two weeks after grafting surgery, 4 groups of GhBChE and 4 groups of GWT mice (n=8 each in each group) received i.p. injections of cocaine at 40, 120, and 160 mg/kg. […] Mice were monitored for 2 h following injection and percent of cocaine- and METH-induced lethality was calculated.\nTo first determine whether engrafting hBChE-expressing cells protects mice from acute systemic toxicity of cocaine, we delivered different doses of cocaine to grafted mice and calculated the lethality rates of cocaine. […]"}, "[4]": {"tested_on": "human epidermal cells", "format": "cell-based"}, "[5]": {"tested_on": "epidermal stem cells", "experiment": "Anchorage-independent growth in soft agar", "settings": "SCC cancer initiating cells as positive control"}},
  "data": [
    {"molecule": "B1", "values": [
      {"measurement": "half-life in vivo", "setting": "[1]", "value": "short half-life in vivo"},
      {"measurement": "effect of expression on cell proliferation / differentiation in vitro", "setting": "[2]", "value": "did not significantly change cell proliferation"},
      {"measurement": "cocaine-induced lethality in GhBChE mice", "setting": "[3]", "value": "nearly lethality"},
      {"measurement": "hBChE production", "setting": "[4]", "value": "strong hBChE production"},
      {"measurement": "anchorage-independent growth (tumorigenicity)", "setting": "[5]", "value": "cannot grow in suspension"}
    ]}
  ]
}
